Assay results from patent publication US20230025129A1 (KYMAB, published 2023).

T1: human matriptase-2 ECD protein his tag (human, UniProt Q8IU80 78-811)
T1 sequence: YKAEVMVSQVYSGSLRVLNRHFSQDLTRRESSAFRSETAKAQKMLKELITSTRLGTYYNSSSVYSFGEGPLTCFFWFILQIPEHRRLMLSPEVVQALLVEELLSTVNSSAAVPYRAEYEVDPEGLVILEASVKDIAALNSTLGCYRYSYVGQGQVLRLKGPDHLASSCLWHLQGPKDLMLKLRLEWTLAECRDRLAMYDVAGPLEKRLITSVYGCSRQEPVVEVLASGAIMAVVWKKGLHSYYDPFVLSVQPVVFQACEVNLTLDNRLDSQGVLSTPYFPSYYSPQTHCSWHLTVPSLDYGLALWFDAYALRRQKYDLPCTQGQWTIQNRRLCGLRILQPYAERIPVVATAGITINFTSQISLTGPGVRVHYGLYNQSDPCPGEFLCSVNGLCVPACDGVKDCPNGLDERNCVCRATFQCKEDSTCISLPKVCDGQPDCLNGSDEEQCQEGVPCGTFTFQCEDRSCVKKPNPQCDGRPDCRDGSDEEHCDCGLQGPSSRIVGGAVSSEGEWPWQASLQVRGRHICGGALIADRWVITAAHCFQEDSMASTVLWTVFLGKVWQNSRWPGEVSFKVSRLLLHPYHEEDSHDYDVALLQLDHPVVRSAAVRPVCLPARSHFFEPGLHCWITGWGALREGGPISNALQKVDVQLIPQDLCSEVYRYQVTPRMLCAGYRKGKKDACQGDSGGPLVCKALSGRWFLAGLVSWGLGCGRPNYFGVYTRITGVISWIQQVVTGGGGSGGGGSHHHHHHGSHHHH

T2: mouse matriptase-2 ECD protein his tag (mouse, UniProt Q9DBI0 80-811)
T2 sequence: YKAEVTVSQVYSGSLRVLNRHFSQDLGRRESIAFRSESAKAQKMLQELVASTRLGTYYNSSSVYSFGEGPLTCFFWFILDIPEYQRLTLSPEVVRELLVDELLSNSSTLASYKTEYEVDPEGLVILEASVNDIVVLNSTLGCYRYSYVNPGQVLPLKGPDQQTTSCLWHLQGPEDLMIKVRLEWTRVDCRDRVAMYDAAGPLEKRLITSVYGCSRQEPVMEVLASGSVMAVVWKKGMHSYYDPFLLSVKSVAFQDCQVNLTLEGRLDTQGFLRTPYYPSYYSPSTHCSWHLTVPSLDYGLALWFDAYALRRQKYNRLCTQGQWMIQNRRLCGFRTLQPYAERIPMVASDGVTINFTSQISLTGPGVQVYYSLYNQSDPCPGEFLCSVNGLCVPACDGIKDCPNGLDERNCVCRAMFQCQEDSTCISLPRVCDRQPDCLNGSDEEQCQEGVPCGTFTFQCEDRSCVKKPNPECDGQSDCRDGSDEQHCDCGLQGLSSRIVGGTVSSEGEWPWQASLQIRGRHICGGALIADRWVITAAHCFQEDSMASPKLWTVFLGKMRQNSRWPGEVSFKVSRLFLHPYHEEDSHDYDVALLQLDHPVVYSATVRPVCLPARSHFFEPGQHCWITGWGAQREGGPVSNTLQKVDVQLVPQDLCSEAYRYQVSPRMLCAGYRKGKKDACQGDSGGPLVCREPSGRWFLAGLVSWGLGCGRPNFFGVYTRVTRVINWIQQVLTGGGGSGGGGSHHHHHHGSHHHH

T3: human MTP-2 expressed on HEK293 cells (human, UniProt Q8IU80 1-811)
T3 sequence: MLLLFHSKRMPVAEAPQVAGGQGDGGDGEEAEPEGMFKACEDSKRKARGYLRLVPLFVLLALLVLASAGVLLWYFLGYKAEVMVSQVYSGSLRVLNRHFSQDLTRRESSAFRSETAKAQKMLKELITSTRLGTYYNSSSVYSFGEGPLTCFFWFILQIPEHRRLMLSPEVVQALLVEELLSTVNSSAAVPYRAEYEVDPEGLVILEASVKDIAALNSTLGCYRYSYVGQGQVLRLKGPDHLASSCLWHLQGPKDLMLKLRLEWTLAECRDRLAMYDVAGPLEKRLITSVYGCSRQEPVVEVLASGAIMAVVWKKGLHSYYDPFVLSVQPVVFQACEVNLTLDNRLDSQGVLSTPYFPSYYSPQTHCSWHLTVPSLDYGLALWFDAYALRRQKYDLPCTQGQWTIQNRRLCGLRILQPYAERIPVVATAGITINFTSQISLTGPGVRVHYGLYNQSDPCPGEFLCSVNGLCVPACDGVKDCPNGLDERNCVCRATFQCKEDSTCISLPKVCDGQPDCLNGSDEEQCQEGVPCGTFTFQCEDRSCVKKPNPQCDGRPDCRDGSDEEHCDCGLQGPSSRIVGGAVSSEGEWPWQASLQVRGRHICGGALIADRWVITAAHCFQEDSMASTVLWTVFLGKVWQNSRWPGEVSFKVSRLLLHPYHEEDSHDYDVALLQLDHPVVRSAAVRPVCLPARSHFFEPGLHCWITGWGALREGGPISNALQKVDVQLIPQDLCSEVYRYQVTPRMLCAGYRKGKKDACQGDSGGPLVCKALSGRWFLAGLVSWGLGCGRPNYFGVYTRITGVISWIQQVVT


Tests used:
Test in all cases: cell-based or functional assay
[1] = molecular target: T1, human matriptase-2 ECD protein his tag
[2] = molecular target: T2, mouse matriptase-2 ECD protein his tag
[3] = molecular target: T3, human MTP-2 expressed on HEK293 cells

| Binder | Inhibition enzymatic activity human MTP2 protein (IC50) [1] | Inhibition enzymatic activity mouse MTP2 protein (IC50) [2] | Inhibition enzymatic activity human MTP2 on cells (IC50) [3] |
| --- | --- | --- | --- |
| NORI-020 (antibody, human IgG4 S228P, lambda, V domains shown) VH: QLQLQESGPGLVKPAETLSLMCTVSGDSISSSHYFWGWIRQPPGKGLEWIGSMYYSGSTYYNPSLKSRVTISVDTSNNQFSLKLRSVTAADTAVYYCVRHNNWGLDNYFDYWGQGTLVTVSS VL: SYELTQPPSVSVSPGQTARITCSADALPDQYAYWYQQKPGQAPLLVIYKDSERPSGIPERFSGSSSGTIVTLTIRGVQAEDEADYYCQSADSSGSYAVFGGGTKLTVLG | 1.72 nM | 1.44 nM | 0.146 nM |
| NORI-007 (antibody, human IgG4 S228P, kappa, V domains shown) VH: EVQLVESGGGLVKPGRSLRLSCTGSGFTFGDFGMSWFRQAPGKGLEWVCFIRSKPYGGTTDYAPSVKGRFTISRDDSISIAYLQMNSLTTEDTAVYYCSRNDILTGYYIFDYWGQGTQVTVSS VL: DIQMTQSPSSLSASLGDSITITCQASQDITNYLIWYQHKPGKAPKLLIFDASNLETGVPSRFSGSGSGTDFTFTISSLQPEDYATYYCQQYYNLPLTFGGGTKVDIKR | 8.79 nM | 39.3 nM | – |
| NORI-002 (antibody, human IgG4 S228P, kappa, V domains shown) VH: EVQLVESGGGLVKPGRSLRLSCTGSGFTFGDFGMSWFRQAPGKGLEWVCFIRSKPYGGTTDYAPSVRGRFSISRDDSKGIVYLQMNSLRTEDTAVYYCSRNEILTGYYIFDYWGQGTLVTVSS VL: DIQMTQSPSSLSASLGDRVTITCQASHDITNYLIWYQQKPGKAPRLLIFDASILETGVPSRFSGSGSGTDFTFTISSLQPEDFATYYCQQYYNLPLTFGGGTKVDIKR | 8.53 nM | 16.2 nM | – |
| NORI-004 (antibody, human IgG4 S228P, kappa, V domains shown) VH: EVQLVESGGGLVKPGRSLRLSCTGSGFTFGDFGMSWFRQAPGKGLEWVCFIRSKPYGGTTDYAPSVKDRFTISRDDSKDIVYLQMNSLRTEDTAVYYCSRNEILTGYYIFDYWGQGTLVTVSS VL: DIQMTQSPSSLSASLGDRVTITCQASHDITNYLIWYQQKPGKAPRLLIFDASILETGVPSRFSGSGSGTDFTFTISSLQPEDFATYYCQQYYNLPLTFGGGTKVDIKR | 5.9 nM | 22.4 nM | – |
| NORI-015 (antibody, human IgG4 S228P, lambda, V domains shown) VH: EVQLVESGGGLIQAGRSLRLSCAASGFTFDEHVIYWVRQIPGKGLEWISSISWKSDIIAYADSVKGRFTISRDNAKNALYLQMNSLRAEDTALYYCAREKDGDFYYYYFAMDVWGQGTTVTVSS VL: QSALTQPPSASGSPGQSVTISCTGTSSNVGYYNYVSWYQQHPGKAPKLMIYEVNKRPSGVPDRFSGSKSANTASLTVSGLQADDEADYYCSSYAGSNKVVFGGGTKLTVLG | 5.51 nM | 5.7 nM | – |
| NORI-016 (antibody, human IgG4 S228P, lambda, V domains shown) VH: EVQLVESGGGLIQAGRSLRLSCAASGFTFDEHVMYWVRQIPGKGLEWISSITWKSDIIAYADSVKGRFTISRDNAKNALYLQMNSLRAEDTALYYCAREKDGDFYYYYFAMDVWGQGTTVTVSS VL: QSALTQPPSASGSPGQSVTISCTGTSSNVGYYNYVSWYQQHPGKAPKLMIYEVNKRPSGVPDRFSGSKSANTASLTVSGLQADDEADYYCSSYAGSNKVVFGGGTKLTVLG | 10.4 nM | 9.27 nM | – |
| NORI-021 (antibody, human IgG4 S228P, lambda, V domains shown) VH: QVQLVESGGGLVKPGGSLRLSCAAFGFTFSDYYMGWIRQAPGKGLEWVSHISSSGRTRYYADSVKGRFTISRDNAKNALYLQMDSLRAEDTAVFYCARAQLRYFDWLDYWGQGTLVTVSS VL: QSVLTQPPSVSAAPGQKVTISCSGSGSNIGNNYVSWYQQVPGTAPKLLIYDNNKRPSGIPDRFSGSKSGTSATLGITGLQTGDEADYYCGTWDSSLSAGVFGGGTKLTVLG | 2.71 nM | 1.9 nM | 8.21 nM |
| NORI-005 (antibody, human IgG4 S228P, kappa, V domains shown) VH: EVHLVESGGGLIKPGRSLRLSCTGSGFTFGDFGLSWFRQAPGKGLEWISFIRSKPYGGTTDYAASVKGRFTISRDDSKSVAYLQMNSLKTEDSAVYYCARNEILTGYYIFDYWGQGILVTVSS VL: DIQMTQSPSSLSASLGDRLTITCQASQDISNYLSWYQLQPGKAPKLLIFDASILETGVPSRFSGSGSGTDFSFTVSSLQPEDIATYYCQQYDNLPLTFGGGTKVDLKR | 5.95 nM | 12.7 nM | – |
| NORI-001 (antibody, human IgG4 S228P, kappa, V domains shown) VH: QVQLVQSGAEVKKPGASVKVSCKVSGYTLSEFSIHWVRQAPGKGLEWMGGFDPEKGKTIYAQKFQGRVTMTEDTSTDTAYMDLSSLRSEDTAVYYCVTEGHFYGSGVFDFWGQGTLVTVSS VL: DIQMTQSPSSLSASVGDRVTITCRPSQGLRFDFGWYQQRPGKAPRRLIYAASILQSGVPSRFSGSGSGTEFTLTISSLQPEDFATYYCLQHNNYPWTFGQGTKVEIKR | 10.1 nM | 12.4 nM | – |
| NORI-018 (antibody, human IgG4 S228P, lambda, V domains shown) VH: QLQLVQSGAEVKKPGASVKVSCKASGYTFTTFGIVWVRQAPGQGLEWMGWISGYNGNTKYAQNLQGRVTMTTDTSTSTAYMELRSLRSDDTAIYYCARDRAIAPRFDPWGQGTLVTVSS VL: SYELTQPPSVSVSPGQAASIPCSGDNLGDNFACWYQQKPGQSPVLVIYQDSKRPSGIPERFSGSNSGNTATLTINGTQAMDEADYYCQAWDSSTVVFGGGTKLTVLG | 2.12 nM | 0.589 nM | 2.22 nM |
| NORI-017 (antibody, human IgG4 S228P, lambda, V domains shown) VH: QVHLVESGGAVVQPGRSLRLSCAASGFTFSNFDMHWVRQTPGKGLEWVTIIRYDETNIYYTESVKGRFTTSRDNSKNTLYLQMNSLRVEDTAVYYCARGWTGSYVFDYWGQGALVTVSS VL: QSVLTQPPSVSEAPRQRVTISCSGGSSNIGNNAVNWYQQVPGKAPKLLIHYDDLLPSGVSDRFSGSKSGTSASLAISGLQSEDEADYYCAAWDDSLNGVVFGGGTKLTVLG | 1.51 nM | 0.489 nM | 0.198 nM |
| NORI-019 (antibody, human IgG4 S228P, lambda, V domains shown) VH: QVQLVESGGGVVQPGRSLRLSCAASGFTFSNFDMHWVRQAPGKGLEWVAIISYDGSDKYYEDSVKGRFTISRDNSKNTLYLQMNSLRAEDTAIYYCAKDGYGSSLFDHWGQGTLVTVSS VL: QSVLTQPPSVSEAPRQRVTISCSGSSSNIGNNAVNWFQQLPGEVPKLLIYYDDLLPSGVSDRFSGSKSGTSASLAISGLQSEDEADYYCAVWDDSLNGVLFGGGTKLTVLG | 1.54 nM | 0.911 nM | 0.0978 nM |
